Reference: patent CN113912708A (INST MILITARY MEDICINE ACADEMY MILITARY SCIENCES PLA, dated 2022)

What was measured:
[1] = biological target: MERS-CoV RBD-Fc蛋白 (MERS-CoV (RBD); human (IgG Fc))
[2] = biological target: MERS-CoV假病毒 (MERS-CoV); test: cell-based or functional assay

B1: 单域重链抗体Nano-Anti-MRBD (VHH)
VHH: QVQLVESGGGLVQPGGSLRLSCAASGFSFIDYAMSWARQAPGKGLEWVSSISPGYGTTYYTDSVKGRFTISRDNAKNMLYLQMNSLKPEDTATYYCAKGSDPFTPGIQRGQGTQVTVSS
In the case of B1, the EC50 [1] is reported as 0.744 ng/mL and the “对MERS-CoV假病毒进入细胞的抑制率 (IC50, luciferase RLU, Huh-7细胞)” value [2] is reported as 10.7 ng/mL.
